Results on seven molecules are retold here after patent publication US20210269521A1 (L AND L BIOPHARMA, published 2021).

Like-named read-outs stand apart in the source and are kept apart here.

Test [1] addresses T1, human PD-1 extracellular domain protein expressed in Example 1 (tag not stated) (human, UniProt Q15116 25-170).
T1 construct: extracellular domain; also called PD-1 protein; not shown: human IgG1 Fc or his tag
The test can be described thus: ELISA, EC50 of bispecific over EC50 of the monoclonal control. The procedure: After washing the microplate 5 times with PBST, 50 μl/well TMB chromogenic substrate (KPL, 52-00-03) was added to the microplate, followed by incubating at room temperature for 10-15 min.
(§1) PD-1 expressed in Example 1 was diluted to a concentration of 1 μg/ml with PBS buffer, pH 7.4, and added to a 96-well microplate (Corning, CLS3590-100EA) at 50 μl per well, thereby incubating in an incubator at 37° C. for 2 hours. After discarding the liquid, a blocking solution of 5% skimmed milk (Shanghai Shenggong Biological Engineering Co., Ltd., A600669-0250) diluted with PBS was added at 200 μl per well, followed by incubating at 37° C. for 3 hours or 4° C. overnight (16-18 hours)) for blocking. Subsequently, the blocking solution was discarded, and the microplate was washed 5 times with PBST buffer (pH 7.4 PBS containing 0.05% tween-20). […] Subsequently, the microplate was washed 5 times with PBST, then 50 μl/well of 1:2500 diluted HRP-labeled secondary antibody (Jackson Immuno Research, 115-035-003) was added, thereby incubating at 37° C. for 1 hour. After washing the microplate 5 times with PBST, 50 μl/well TMB chromogenic substrate (KPL, 52-00-03) was added, then incubated at room temperature for 5-10 min. Finally, 50 μl/well of 1M H₂SO₄ was added to stop the reaction. […] Go microplate reader (ThermoFisher, 51119200) was used to read the absorption value at 450 nm and the EC50 based on the OD value was calculated.
In general terms: An ELISA detects its analyte on a solid surface through an enzyme-linked reagent.

The target in test [2] is T2, human TIM-3 extracellular domain-human IgG1 Fc fusion protein (human, UniProt Q8TDQ0 22-199).
T2 construct: Made in house or bought (ACROBiosystems TM3-H5258); also called TIM-3-hFc; not shown: human IgG1 Fc
Kind of test: ELISA. The procedure: Goat-anti-hFc (Jackson, 109-005-008) was diluted to a concentration of 1 μg/ml with PBS buffer (pH 7.4) and added to a 96-well microplate (Corning, CLS3590-100EA) at a volume of 50 μl/well, then incubated in an incubator at 37° C. for 2 hours (Or the antigen TIM-3 was directly used to coat the microplate with a concentration of 0.5 μg/ml, and then the antibody to be tested was directly added). After discarding the liquid, a blocking solution of 5% skimmed milk (skimmed milk powder purchased from Bright) diluted with PBS was added at 200 μl per well, and the microplate was incubated for 2.5 hours at 37° C. or overnight (16-18 hours) at 4° C. for blocking. The blocking solution was discarded, and the microplate was washed 5 times with PBST buffer (PBS with pH 7.4 containing 0.05% tween-20), then 50 μl/well of 0.5 μg/ml TIM-3-hFc (Example 1) was added and incubated for 2 hours in a 37° C. incubator. After incubation, the microplate was washed 6 times with PB ST. 50 μl/well of supernatant (containing testing antibody) or different concentrations of the antibody to be tested was added, and the microplate was incubated at 37° C. for 2 hours and washed 5 times with PBST. 50 μl/well of 1:2500 diluted HRP-labeled secondary antibody (Jackson Immuno Research, 115-035-003) was added to the microplate, incubating at 37° C. for 1 hour. After washing the microplate 5 times with PBST, 50 μl/well TMB chromogenic substrate (KPL, 52-00-03) was added to the microplate, followed by incubating at room temperature for 10-15 min.

Test [3] has as its target T2, human TIM-3 extracellular domain-human …. Kind of test: ELISA, EC50 of bispecific over EC50 of the monoclonal control.
Test [4] addresses T1, human PD-1 extracellular domain protein …. The test can be described thus: ELISA, PD-1 coated. As to the method:
as §1

The target in test [5] is T2, human TIM-3 extracellular domain-human …. Kind of test: ELISA. The source holds these as a separate data set.
Test [6] has as its target T1, human PD-1 extracellular domain protein …. Kind of test: ELISA, PD-1 coated. As to the method: as §1
The TIM-3 and PD-1 bispecific antibodies of the present invention were tested for their affinity for TIM-3 and PD-1 using the methods in Example 3 and Example 5, respectively.
The source holds these as a separate data set.

A further test has as its target T3, Human PD-1-his (human, UniProt Q15116 25-170).
T3 construct: extracellular domain; not shown: his tag
The test can be described thus: SPR Biacore, antibody captured on Protein A, antigen in flow. The procedure:
(§2) First, Protein A (Thermo Pierce, Cat #21181) was conjugated to the biosensing chip CMS (Cat. #BR-1005-30, GE), and the chip was activated with the newly prepared 50 mM NHS (N-hydroxysuccinimide) and 200 mM EDC [1-ethyl-3-(3-dimethylaminopropyl) carbodiimide hydrochloride], then 10 μg/ml Protein A prepared with 10 mM NaAC (pH 4.0) was injected. […] The flow rate was 30 μl/min, the binding time was 180 seconds and the dissociation time is 300 seconds. Subsequently, the chip was washed for 30s with 10 mM Glycine-HCl (pH 1.5) at 30 μl/min. The data were fitted with a 1:1 Langmuir model using the software of Biacore T200 evaluation version 3.0 (GE), and the affinity value KD was obtained.
On the technique in general: In SPR one partner is held on a chip, and binding of the other changes the refractive index at the surface.

The target of test [7] is T4, human TIM-3 extracellular domain-his tag protein (human, UniProt Q8TDQ0 22-199).
T4 construct: Made in house or bought (ACROBiosystems TM3-H5229); also called TIM-3-his; Human Tim3-his; not shown: his tag
The test is described as above. As to the method:
as §2

B1: bispecific antibody LB147 (bispecific antibody, human IgG4 S228P, kappa)
light: DIQMTQSPSSLSASVGDRVTITCRASENIYSYLTWYQQKPGKAPKLLIYNAKTLAEGVPSRFSGSGSGTDFTLTISSLQPEDFATYYCQQHYGTPLTFGQGTKLEIKGGGGSGGGGSGGGGSEVQLVESGGGLVKPGGSLRLSCAASGFTFSDYYMTWVRQAPGKGLEWVSSINYDGRNTYYLDSLKSRFTISRDNAKNSLYLQMNSLRAEDTAVYYCARGYYYYGSSPNYFDYWGQGTLVTVSSGGGGSGGGGSGGGGSEIVLTQSPATLSLSPGERATLSCRASKGVSTSGYSYLHWYQQKPGQAPRLLIYLASYLESGVPARFSGSGSGTDFTLTISSLEPEDFAVYYCQHSRDLPLTFGGGTKVEIKRTVAAPSVFIFPPSDEQLKSGTASVVCLLNNFYPREAKVQWKVDNALQSGNSQESVTEQDSKDSTYSLSSTLTLSKADYEKHKVYACEVTHQGLSSPVTKSFNRGEC
heavy: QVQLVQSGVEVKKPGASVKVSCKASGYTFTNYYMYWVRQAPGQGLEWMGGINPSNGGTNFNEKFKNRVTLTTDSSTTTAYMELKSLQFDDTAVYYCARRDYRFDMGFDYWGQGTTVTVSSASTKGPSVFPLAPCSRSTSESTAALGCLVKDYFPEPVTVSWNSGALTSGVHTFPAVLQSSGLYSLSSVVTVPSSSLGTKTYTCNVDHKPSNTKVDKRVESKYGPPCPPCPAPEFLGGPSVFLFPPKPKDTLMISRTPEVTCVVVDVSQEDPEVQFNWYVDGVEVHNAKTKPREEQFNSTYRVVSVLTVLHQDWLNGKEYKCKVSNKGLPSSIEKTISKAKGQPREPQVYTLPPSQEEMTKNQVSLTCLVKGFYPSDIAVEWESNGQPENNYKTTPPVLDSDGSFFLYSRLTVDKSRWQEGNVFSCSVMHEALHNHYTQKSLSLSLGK
notes: Ab32VL-(G4S)3-ab32VH-(G4S)3-PemVL-κ with PemVH-hIgG4
As for B1, the “Multiple of EC50 variation” value is 0.81 ratio in test [1] and 0.79 ratio in test [3]. Besides, the figures for the concentration giving a half-maximal response (EC50) in test [2] and in test [4] were 0.62 nM and 0.056 nM, respectively.

B2: bispecific antibody LB127 (bispecific antibody, human IgG4 S228P, kappa)
light: DIQMTQSPSSLSASVGDRVTITCHASQGISSNIGWLQQKPGKAFKGLIYQGSNLEDGVPSRFSGSGSGADYTLTISSLQPEDFATYYCVQFAQFPPTFGQGTKLEIKRTVAAPSVFIFPPEIVLTQSPATLSLSPGERATISCRASKGVSTSGYSYLHWYQQKPGQAPRLLIYLASYLESGVPARFSGSGSGTDFTLTISSLEPEDFATYYCQHSRELPLTFGTGTKVEIKRTVAAPSVFIFPPSDEQLKSGTASVVCLLNNFYPREAKVQWKVDNALQSGNSQESVTEQDSKDSTYSLSSTLTLSKADYEKHKVYACEVTHQGLSSPVTKSFNRGEC
heavy: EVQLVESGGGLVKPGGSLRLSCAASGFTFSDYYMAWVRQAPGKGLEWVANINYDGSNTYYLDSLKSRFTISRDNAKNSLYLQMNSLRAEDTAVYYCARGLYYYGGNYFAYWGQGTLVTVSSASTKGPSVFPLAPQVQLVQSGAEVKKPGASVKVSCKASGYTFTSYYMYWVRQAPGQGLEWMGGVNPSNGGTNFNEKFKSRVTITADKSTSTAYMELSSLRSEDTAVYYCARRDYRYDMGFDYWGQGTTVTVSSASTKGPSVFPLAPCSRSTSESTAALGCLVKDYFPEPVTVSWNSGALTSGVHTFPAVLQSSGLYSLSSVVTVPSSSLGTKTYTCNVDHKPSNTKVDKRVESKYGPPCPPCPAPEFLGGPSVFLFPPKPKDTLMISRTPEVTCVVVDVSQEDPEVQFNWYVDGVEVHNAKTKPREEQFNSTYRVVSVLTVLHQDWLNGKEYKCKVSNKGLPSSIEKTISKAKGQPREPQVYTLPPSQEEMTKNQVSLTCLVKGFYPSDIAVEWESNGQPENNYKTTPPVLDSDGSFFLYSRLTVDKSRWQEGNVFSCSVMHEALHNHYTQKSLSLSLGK
Consider B2, for which the EC50 in test [5] amounted to 0.325 nM; in test [6] it was 0.423 nM.

B3: bispecific antibody LB246 (bispecific antibody, human IgG4 S228P, kappa)
light: DIQMTQSPSSLSASVGDRVTITCHASQGISSNIGWLQQKPGKAFKGLIYQGSNLEDGVPSRFSGSGSGADYTLTISSLQPEDFATYYCVQFAQFPPTFGQGTKLEIKGGGGSGGGGSGGGGSEVQLVESGGGLVKPGGSLRLSCAASGFTFSDYYMAWVRQAPGKGLEWVANINYDGSNTYYLDSLKSRFTISRDNAKNSLYLQMNSLRAEDTAVYYCARGLYYYGGNYFAYWGQGTLVTVSSGGGGSGGGGSGGGGSEIVLTQSPATLSLSPGERATLSCRASKGVSTSGYSYLHWYQQKPGQAPRLLIYLASYLESGVPARFSGSGSGTDFTLTISSLEPEDFAVYYCQHSRDLPLTFGGGTKVEIKRTVAAPSVFIFPPSDEQLKSGTASVVCLLNNFYPREAKVQWKVDNALQSGNSQESVTEQDSKDSTYSLSSTLTLSKADYEKHKVYACEVTHQGLSSPVTKSFNRGECGGGGSGGGGSGGGGSEVQLVESGGGLVKPGGSLRLSCAASGFTFSDYYMAWVRQAPGKGLEWVANINYDGSNTYYLDSLKSRFTISRDNAKNSLYLQMNSLRAEDTAVYYCARGLYYYGGNYFAYWGQGTLVTVSSGGGGSGGGGSGGGGSDIQMTQSPSSLSASVGDRVTITCHASQGISSNIGWLQQKPGKAFKGLIYQGSNLEDGVPSRFSGSGSGADYTLTISSLQPEDFATYYCVQFAQFPPTFGQGTKLEIK
heavy: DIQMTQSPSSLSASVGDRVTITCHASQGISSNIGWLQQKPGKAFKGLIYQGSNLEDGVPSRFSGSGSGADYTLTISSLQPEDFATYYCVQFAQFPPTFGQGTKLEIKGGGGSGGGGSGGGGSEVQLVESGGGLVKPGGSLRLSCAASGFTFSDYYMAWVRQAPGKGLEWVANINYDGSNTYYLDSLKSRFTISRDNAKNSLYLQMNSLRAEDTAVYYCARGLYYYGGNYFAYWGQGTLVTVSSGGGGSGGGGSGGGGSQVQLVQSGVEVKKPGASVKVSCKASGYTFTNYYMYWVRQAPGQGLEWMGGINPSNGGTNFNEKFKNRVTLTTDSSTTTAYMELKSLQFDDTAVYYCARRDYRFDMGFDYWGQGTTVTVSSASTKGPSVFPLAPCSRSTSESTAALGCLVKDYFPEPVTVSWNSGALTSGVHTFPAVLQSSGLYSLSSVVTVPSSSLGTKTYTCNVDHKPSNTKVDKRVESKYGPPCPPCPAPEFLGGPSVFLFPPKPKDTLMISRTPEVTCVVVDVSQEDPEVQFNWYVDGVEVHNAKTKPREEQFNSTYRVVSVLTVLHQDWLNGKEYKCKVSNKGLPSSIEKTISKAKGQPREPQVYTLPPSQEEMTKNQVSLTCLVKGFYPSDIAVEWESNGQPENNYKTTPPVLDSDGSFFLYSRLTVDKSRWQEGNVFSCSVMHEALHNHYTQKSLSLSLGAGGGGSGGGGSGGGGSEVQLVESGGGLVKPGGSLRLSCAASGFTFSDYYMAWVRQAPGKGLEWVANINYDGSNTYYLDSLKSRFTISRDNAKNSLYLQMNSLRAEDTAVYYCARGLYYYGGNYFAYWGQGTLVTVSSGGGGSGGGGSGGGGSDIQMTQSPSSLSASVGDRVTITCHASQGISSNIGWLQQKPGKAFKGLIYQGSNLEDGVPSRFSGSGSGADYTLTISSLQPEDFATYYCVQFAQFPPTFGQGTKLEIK
For the molecule B3, the “Multiple of EC50 variation” value in test [1] stood at 21 ratio; in test [3], 12.9 ratio. Also, the half-maximal effective concentration (EC50) amounted to 2.05 nM in test [2] and 5.51 nM in test [4].

B4: bispecific antibody LB247 (bispecific antibody, human IgG4 S228P, kappa)
light: EIVLTQSPATLSLSPGERATLSCRASKGVSTSGYSYLHWYQQKPGQAPRLLIYLASYLESGVPARFSGSGSGTDFTLTISSLEPEDFAVYYCQHSRDLPLTFGGGTKVEIKRTVAAPSVFIFPPSDEQLKSGTASVVCLLNNFYPREAKVQWKVDNALQSGNSQESVTEQDSKDSTYSLSSTLTLSKADYEKHKVYACEVTHQGLSSPVTKSFNRGEC
heavy: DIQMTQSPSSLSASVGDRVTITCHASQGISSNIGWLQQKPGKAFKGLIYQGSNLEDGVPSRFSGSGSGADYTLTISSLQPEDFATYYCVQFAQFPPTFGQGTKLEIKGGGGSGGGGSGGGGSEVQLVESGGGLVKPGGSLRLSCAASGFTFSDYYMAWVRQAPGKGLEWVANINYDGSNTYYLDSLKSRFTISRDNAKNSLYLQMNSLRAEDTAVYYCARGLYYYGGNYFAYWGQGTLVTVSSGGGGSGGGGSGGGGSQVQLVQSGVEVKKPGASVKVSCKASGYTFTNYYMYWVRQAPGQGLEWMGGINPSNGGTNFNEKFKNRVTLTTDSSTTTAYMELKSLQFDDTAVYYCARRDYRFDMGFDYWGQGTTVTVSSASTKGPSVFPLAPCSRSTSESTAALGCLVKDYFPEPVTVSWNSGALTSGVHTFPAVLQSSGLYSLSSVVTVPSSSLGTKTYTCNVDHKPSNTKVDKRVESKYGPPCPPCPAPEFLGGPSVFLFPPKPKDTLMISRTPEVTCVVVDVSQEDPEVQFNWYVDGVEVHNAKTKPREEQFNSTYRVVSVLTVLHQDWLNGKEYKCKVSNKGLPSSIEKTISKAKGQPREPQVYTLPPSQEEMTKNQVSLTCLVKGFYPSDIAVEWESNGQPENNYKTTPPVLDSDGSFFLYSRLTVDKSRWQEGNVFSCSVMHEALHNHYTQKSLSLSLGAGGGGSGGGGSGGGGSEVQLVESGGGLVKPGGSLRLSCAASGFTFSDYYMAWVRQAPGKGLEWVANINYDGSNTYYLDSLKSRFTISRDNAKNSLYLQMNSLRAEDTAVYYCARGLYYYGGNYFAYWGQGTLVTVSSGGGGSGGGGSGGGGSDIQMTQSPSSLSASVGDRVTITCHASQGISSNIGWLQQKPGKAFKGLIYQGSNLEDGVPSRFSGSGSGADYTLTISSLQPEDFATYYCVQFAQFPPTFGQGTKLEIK
B4: the figures for the “Multiple of EC50 variation” value in test [1] and in test [3] were 1.98 ratio and 2.38 ratio, respectively. For the same molecule, the dissociation constant (Kd) was found to be 7.34 nM with Human PD-1-his and 8.29 nM in test [7]. Further, the koff in the test with Human PD-1-his was found to be 0.00259 s⁻¹; in test [7], 0.00332 s⁻¹. Besides, the on-rate (kon) worked out at 353000 M⁻¹ s⁻¹ with Human PD-1-his and 401000 M⁻¹ s⁻¹ in test [7]. Moreover, the concentration for a half-maximal effect (EC50) was determined as 1.86 nM in test [2] and 0.19 nM in test [4].

B5: bispecific antibody LB124 (bispecific antibody, human IgG4 S228P, kappa)
light: EIVLTQSPATLSLSPGERATISCRASKGVSTSGYSYLHWYQQKPGQAPRLLIYLASYLESGVPARFSGSGSGTDFTLTISSLEPEDFATYYCQHSRELPLTFGTGTKVEIKRTVAAPSVFIFPPSDEQLKSGTASVVCLLNNFYPREAKVQWKVDNALQSGNSQESVTEQDSKDSTYSLSSTLTLSKADYEKHKVYACEVTHQGLSSPVTKSFNRGEC
heavy: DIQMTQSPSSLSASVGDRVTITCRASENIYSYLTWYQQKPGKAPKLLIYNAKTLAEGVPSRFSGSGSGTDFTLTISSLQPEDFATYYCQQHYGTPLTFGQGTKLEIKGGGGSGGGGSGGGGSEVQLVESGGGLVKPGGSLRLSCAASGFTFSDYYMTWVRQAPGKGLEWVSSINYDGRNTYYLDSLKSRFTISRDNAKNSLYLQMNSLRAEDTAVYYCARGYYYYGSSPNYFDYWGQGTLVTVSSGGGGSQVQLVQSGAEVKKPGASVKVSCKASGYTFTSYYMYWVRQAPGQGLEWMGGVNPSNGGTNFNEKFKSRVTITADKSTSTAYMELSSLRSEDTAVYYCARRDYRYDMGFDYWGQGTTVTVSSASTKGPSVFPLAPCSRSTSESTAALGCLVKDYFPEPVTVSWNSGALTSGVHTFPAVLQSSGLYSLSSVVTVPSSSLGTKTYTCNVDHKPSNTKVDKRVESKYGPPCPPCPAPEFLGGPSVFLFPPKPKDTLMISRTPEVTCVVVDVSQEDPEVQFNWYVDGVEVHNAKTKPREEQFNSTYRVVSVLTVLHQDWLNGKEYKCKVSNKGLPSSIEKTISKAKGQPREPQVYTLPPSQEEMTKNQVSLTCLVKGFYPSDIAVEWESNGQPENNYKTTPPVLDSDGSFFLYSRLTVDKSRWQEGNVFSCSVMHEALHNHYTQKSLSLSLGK
Regarding B5, the figures for the EC50 in test [5] and in test [6] were 0.438 nM and 0.383 nM, respectively.

B6: bispecific antibody LB123 (bispecific antibody, human IgG4 S228P, kappa)
light: EIVLTQSPATLSLSPGERATISCRASKGVSTSGYSYLHWYQQKPGQAPRLLIYLASYLESGVPARFSGSGSGTDFTLTISSLEPEDFATYYCQHSRELPLTFGTGTKVEIKRTVAAPSVFIFPPSDEQLKSGTASVVCLLNNFYPREAKVQWKVDNALQSGNSQESVTEQDSKDSTYSLSSTLTLSKADYEKHKVYACEVTHQGLSSPVTKSFNRGEC
heavy: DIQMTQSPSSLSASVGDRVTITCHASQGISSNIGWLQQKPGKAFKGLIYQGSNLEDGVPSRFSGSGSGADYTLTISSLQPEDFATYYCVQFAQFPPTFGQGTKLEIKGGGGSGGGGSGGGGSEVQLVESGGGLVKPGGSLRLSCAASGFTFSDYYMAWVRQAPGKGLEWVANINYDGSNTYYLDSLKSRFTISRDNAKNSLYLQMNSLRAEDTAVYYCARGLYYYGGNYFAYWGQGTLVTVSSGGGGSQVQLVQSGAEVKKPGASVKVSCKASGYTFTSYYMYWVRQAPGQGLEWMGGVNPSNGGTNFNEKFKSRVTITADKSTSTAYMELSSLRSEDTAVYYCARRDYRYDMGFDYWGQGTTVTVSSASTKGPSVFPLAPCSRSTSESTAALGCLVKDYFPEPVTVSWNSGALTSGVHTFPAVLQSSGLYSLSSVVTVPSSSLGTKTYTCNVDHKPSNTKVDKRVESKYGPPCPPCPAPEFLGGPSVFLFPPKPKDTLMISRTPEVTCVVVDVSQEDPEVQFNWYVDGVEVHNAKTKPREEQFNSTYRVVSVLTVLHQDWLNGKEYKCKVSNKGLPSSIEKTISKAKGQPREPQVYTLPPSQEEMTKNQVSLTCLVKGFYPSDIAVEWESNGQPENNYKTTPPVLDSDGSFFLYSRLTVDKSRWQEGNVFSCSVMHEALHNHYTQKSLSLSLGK
On to B6, for which the EC50 in test [5] amounted to 0.181 nM; in test [6] it was 0.216 nM.

B7: bispecific antibody LB245 (bispecific antibody, human IgG4 S228P, kappa)
light: EIVLTQSPATLSLSPGERATLSCRASKGVSTSGYSYLHWYQQKPGQAPRLLIYLASYLESGVPARFSGSGSGTDFTLTISSLEPEDFAVYYCQHSRDLPLTFGGGTKVEIKRTVAAPSVFIFPPSDEQLKSGTASVVCLLNNFYPREAKVQWKVDNALQSGNSQESVTEQDSKDSTYSLSSTLTLSKADYEKHKVYACEVTHQGLSSPVTKSFNRGECGGGGSGGGGSGGGGSEVQLVESGGGLVKPGGSLRLSCAASGFTFSDYYMAWVRQAPGKGLEWVANINYDGSNTYYLDSLKSRFTISRDNAKNSLYLQMNSLRAEDTAVYYCARGLYYYGGNYFAYWGQGTLVTVSSGGGGSGGGGSGGGGSDIQMTQSPSSLSASVGDRVTITCHASQGISSNIGWLQQKPGKAFKGLIYQGSNLEDGVPSRFSGSGSGADYTLTISSLQPEDFATYYCVQFAQFPPTFGQGTKLEIK
heavy: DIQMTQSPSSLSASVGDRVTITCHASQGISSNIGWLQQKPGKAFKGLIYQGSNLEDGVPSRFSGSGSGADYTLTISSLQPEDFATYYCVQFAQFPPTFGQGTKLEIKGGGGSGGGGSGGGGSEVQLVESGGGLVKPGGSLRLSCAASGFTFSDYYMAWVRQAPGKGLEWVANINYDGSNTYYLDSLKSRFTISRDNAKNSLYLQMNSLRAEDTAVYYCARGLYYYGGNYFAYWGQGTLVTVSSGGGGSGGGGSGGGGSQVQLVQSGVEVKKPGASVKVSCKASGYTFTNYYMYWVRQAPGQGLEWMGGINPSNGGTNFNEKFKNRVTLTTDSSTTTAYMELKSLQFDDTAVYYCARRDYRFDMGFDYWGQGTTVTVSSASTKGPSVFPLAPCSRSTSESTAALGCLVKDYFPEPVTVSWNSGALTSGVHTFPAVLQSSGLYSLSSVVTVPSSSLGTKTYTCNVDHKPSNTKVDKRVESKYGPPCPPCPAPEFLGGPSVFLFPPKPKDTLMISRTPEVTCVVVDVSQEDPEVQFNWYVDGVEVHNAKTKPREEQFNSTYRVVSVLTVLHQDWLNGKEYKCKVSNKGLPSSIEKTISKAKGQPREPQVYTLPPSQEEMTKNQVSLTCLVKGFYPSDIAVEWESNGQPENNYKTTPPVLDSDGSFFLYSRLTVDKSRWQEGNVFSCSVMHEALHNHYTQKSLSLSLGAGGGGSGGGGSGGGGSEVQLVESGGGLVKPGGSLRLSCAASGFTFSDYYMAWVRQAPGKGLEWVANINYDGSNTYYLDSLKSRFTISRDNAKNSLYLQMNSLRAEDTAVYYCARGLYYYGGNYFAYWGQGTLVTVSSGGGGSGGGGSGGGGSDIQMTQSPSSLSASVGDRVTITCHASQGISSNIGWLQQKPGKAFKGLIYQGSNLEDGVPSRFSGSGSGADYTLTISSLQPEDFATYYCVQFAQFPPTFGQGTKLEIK
With B7, the figures for the “Multiple of EC50 variation” value in test [1] and in test [3] were 1.3 ratio and 2.46 ratio, respectively. In addition, the concentration for a half-maximal effect (EC50) in test [2] came out at 0.391 nM; in test [4], 0.342 nM.

As usually defined, the EC50 is the midpoint of the concentration-response curve. A lower EC50 goes with higher potency in that assay. By Kd is commonly meant the free concentration of one partner at which half of the binding sites on the other are occupied at equilibrium, for simple one-to-one binding. As a reminder, the koff is the first-order rate constant of dissociation. A lower koff goes with slow dissociation. As usually defined, the kon is the second-order rate constant of association.
